According to patent US20130064835A1, “RAGE REGULATES ROCK ACTIVITY IN CARDIOVASCULAR DISEASE” (priority 2009, published 2013):

How the values were obtained:
[1] = tested on: vascular smooth muscle cells; test: Smooth muscle cell migration assay (QCM Colorimetric Cell Migration Assay); format: cell-based, mice; conditions: S100B 10 μg/ml; for S100B-stimulated SMC migration in presence of inhibitor: preincubation with agent (Y27632 10 μM, fasudil 10 μM, anti-Tgf-β2 IgG 10 μg/ml vs IgG control), FIGS. 8D, 8F; for SMC migration on incubation with stimulant: Tgf-β2 10 ng/ml, PDGF 10 ng/ml, FIG. 8B
Description: (§1) Wild-type and RAGE null mice vascular smooth muscle cells were isolated and cultured from the aorta and employed through passage 5 to 7. Migration assays were performed using the QCM Colorimetric Cell Migration Assay (Chemicon). Cells (3×10^5/well) were seeded into the upper chambers fitted with a lower 8 μm porous polycarbonate membrane, and the insert was placed in the lower chamber of a 24-well dish containing Dulbeccos' modified Eagle medium and no stimulant, S100B (10 μg/ml; generously provided by Dr. Guenter Fritz), Tgf-β2 (10 ng/ml; R&D Systems), or PDGF (10 ng/ml; R&D Systems) and incubated at 37° C. for 5 hrs and relative migration was measured according to the manufacturer's instructions. In experiments using anti-Tgf-β2 IgG and nonimmune IgG (10 μg/ml, both from Santa Cruz Biotechnology, Santa Cruz, Calif.), Y27632 (10 μM, Sigma Aldrich) and fasudil hydrochloride (10 μM, Tocris Bioscience, Ellisville Mo.) cells were preincubated with these agents or vehicle alone for 2 hrs in the case of antibodies and 30 mins in the case of Y27632 or fasudil at 37° C. prior to the addition to the chemotaxis chambers. Proliferation of cultured SMCs was quantified by measurement of incorporation of tritiated thymidine. SMCs were seeded at a density of 2×10^4 cells/wells in 24-well tissue culture-treated plates and incubated in serum-free DMEM for 16 hrs. Following a 2 hr preincubation with the indicated concentration of anti-Tgf-β2, nonimmune IgG, Y27632 or fasudil, cells were exposed to serum-free DMEM containing the indicated concentration of S100B or PDGF (10 ng/ml) along with 3H-thymidine (1 μCi/well). After the incubation period, cells were harvested 48 hrs later, and cellular proliferation was determined based on the incorporation of tritiated thymidine. Cell counting was performed and confirmed that increased trititated thymidine incorporation reflected an increase in cell number.

[2] = tested on: vascular smooth muscle cells; test: Smooth muscle cell proliferation assay (tritiated thymidine incorporation); format: cell-based, mice; conditions: for S100B-stimulated SMC proliferation in presence of inhibitor: preincubation with agent (Y27632 10 μM, fasudil 10 μM, anti-Tgf-β2 IgG 10 μg/ml vs IgG control), FIGS. 8C, 8E; for SMC proliferation on incubation with stimulant: FIG. 8A
Description: as §1

ROCK1 = ROCK1 activity assay (MYPT1 phosphorylation) on lysates of aorta or primary aortic SMCs; format: cell-based, murine; conditions: S100B 10 μg/ml, FIG. 5B
Description: Activation of ROCK1 was evaluated on lysates of aorta or primary murine aortic smooth muscle cells retrieved from wild-type or RAGE null mice. In the latter case, SMCs were stimulated with S100B (10 μg/ml for the indicated times and subjected to ROCK1 activity assays (7-8). Aortas or SMCs were lysed using a Triton X-100 lysis buffer containing 50 mM Tris (pH 7.5), 10 mM MgCl2, 0.5 M NaCl and 1% Triton X-100. The samples were incubated with Anti-ROCK1 antibody described above for 1 hr further with Protein G coated agarose beads for overnight at 4° C., and the beads were washed three times with lysis buffer. The amount of ROCK1 associated with the beads was incubated with 50 μl kinase buffer, 1 μl 10 mM ATP (Cell Signalling) and 0.5 μg […] myosin phosphatase-1 (MYPT1)/protein phosphatase-1 regulatory (inhibitor) subunit 12A (Ppplrl2a) substrate (Upstate Biotech) at […] for 30 min. Reaction was stopped by adding sample buffer, boiled for 5 min and the amount of phosphorylated MYPT1 was examined by immunoblotting using ThrB50-phosphorylation specific antibody 36-003 (Upstate Biotechnology). […] Equal quantities of ROCK1 were treated with equal quantities of MYPT1/Ppp1r12a. Relative absorbances were measured as described above, and these were used to determine the relative activation of ROCK1. […]

O=S(=O)(c1cccc2cnccc12)N1CCCNCC1 [fasudil, 5-(1,4-diazepane-1-sulfonyl)isoquinoline, reference compound]
S100B-stimulated SMC migration in presence of inhibitor ([1]; wild-type SMCs): significantly reduced | S100B-stimulated SMC proliferation in presence of inhibitor ([2]; wild-type SMCs): significantly reduced

C[C@@H](N)[C@H]1CC[C@H](C(=O)Nc2ccncc2)CC1 [Y27632, reference compound]
S100B-stimulated SMC migration in presence of inhibitor ([1]; wild-type SMCs): significantly reduced | S100B-stimulated SMC proliferation in presence of inhibitor ([2]; wild-type SMCs): significantly reduced

PDGF [reference compound]
SMC migration on incubation with stimulant ([1]; RAGE-deficient SMCs): increased | SMC migration on incubation with stimulant ([1]; wild-type SMCs): increased | SMC proliferation on incubation with stimulant ([2]; RAGE-deficient SMCs): increased | SMC proliferation on incubation with stimulant ([2]; wild-type SMCs): increased

B1: S100B: RAGE ligand S100B (protein, UniProt P04271 2-92, looked up)
Protein S100-B: SELEKAMVALIDVFHQYSGREGDKHKLKKSELKELINNELSHFLEEIKEQEVVDKVMETLDNDGDGECDFQEFMAFVAMVTTACHEFFEHE
SMC migration on incubation with stimulant ([1]; RAGE-deficient SMCs): failed to stimulate | SMC migration on incubation with stimulant ([1]; wild-type SMCs): significantly increased | ROCK1 activity upon incubation with RAGE ligand (ROCK1; SMCs from RAGE null mice): failed to increase ROCK1 activity | ROCK1 activity upon incubation with RAGE ligand (ROCK1; primary aortic SMCs from wild-type mice): increased ROCK1 activity | SMC proliferation on incubation with stimulant ([2]; RAGE-deficient SMCs): failed to stimulate | SMC proliferation on incubation with stimulant ([2]; wild-type SMCs): significantly increased

B2: Tgf-β2: Tgf-β2 (R&D Systems), used as SMC stimulant (protein)
chain: ALDAAYCFRNVQDNCCLRPLYIDFKRDLGWKWIHEPKGYNANFCAGACPYLWSSDTQHTKVLSLYNTINPEASASPCCVSQDLEPLTILYYIGNTPKIEQLSNMIVKSCKCS
SMC migration on incubation with stimulant ([1]; RAGE-deficient SMCs): increased | SMC migration on incubation with stimulant ([1]; wild-type SMCs): increased | SMC proliferation on incubation with stimulant ([2]; RAGE-deficient SMCs): increased | SMC proliferation on incubation with stimulant ([2]; wild-type SMCs): increased
